According to the Immune Epitope Database (IEDB):

target: HLA-A*02:03; assay: IEDB peptide-MHC binding, cellular MHC/competitive/fluorescence; ≥ and ≤ were set here for values at or beyond the usual limits of such assays; settings: source organism: Influenza A virus

Sequence | IC50 [µM]
QARQMVQAMRA | ≥ 70
QTRSKAGLLV | 22
RAEIIRMMEGA | 10
RAVKLYRKL | 49.9
SAAFEDLRL | 9.24
SAAFEDLRLL | 13.6
TATKRIRMA | 24.1
TVDHMAII | 13
TVIKNNMI | ≥ 70
TVLGVSIL | 14.2
TVPSERGL | ≥ 70
VATTHSWI | 62.3

same assay, conditions: source organism: Mammarenavirus choriomeningitidis

Sequence | IC50 [µM]
SNSEDLLKAV | 15.2

same assay, conditions: source organism: Vaccinia virus WR

Sequence | IC50 [µM]
PLSPDTCLLA | 9.31
PLTGNNTITT | 29.5
PMIIGEPIIV | 8.84
PTDMLKLFT | 47
PTEMVDVSM | 41.3
PTEMVDVSMM | ≥ 70
PTIEDDKIVT | 20.6
PTLFGRGVI | 6.73
PTNDIPSLFI | 61.8
PTPKKMNIVT | 55.7
PTRTWKVLSI | 15.1
PVDLVKSSFV | 9.64
PVETLFGSYI | 11.8
PVIVPDIKL | 32.7
QTGINNVQSL | 24.4
RINLLVQYGA | 15.3
RISSSLDQT | 12.8
RLEVIGLTT | 13.9
RTWKVLSIMA | 6.05
RVTKRDESSI | 10.7

Sequence | IC50 [µM]
SADNHPKMI | 43.5
SAEDNYLAKL | ≥ 70
SIENKHQRRL | 21.1
SITPNNLNKI | ≥ 70
STQQNKLVI | 14.4
SVDEEGCGPL | 38.7
TIDNIVTSLA | ≥ 70
TIEDDKIVTM | 17.2
TIESAKTKI | 54.1
TQFNFNGHT | 14.4
TQLFKYVPSA | ≥ 70
TTELNIVDEI | ≥ 70
TTENAAYQVL | ≥ 70
TVDVRNIVT | 13.1
VAKCCSKTNT | 21.7
VASDVCKKNL | ≥ 70
VIPFDDIVRT | 50.3
VIRHVDGKIL | 33.4
VIVENDNVI | 19.5
VLKAMHDKKI | 33.9

target: HLA-A*02:02; assay: as above; settings: source organism: Influenza A virus

Sequence | IC50 [µM]
QARQMVQAMRA | 24.9
QTRSKAGLLV | ≥ 70
RAEIIRMMEGA | 11.8
RAVKLYRKL | ≥ 70
SAAFEDLRL | 15.4
SAAFEDLRLL | 21.4
TATKRIRMA | 48.4
TVDHMAII | ≥ 70
TVIKNNMI | 36
TVLGVSIL | 23.9
TVPSERGL | ≥ 70
VATTHSWI | ≥ 70

same assay, conditions: source organism: Mammarenavirus choriomeningitidis

Sequence | IC50 [µM]
SNSEDLLKAV | 17.8

same assay, conditions: source organism: Vaccinia virus WR

Sequence | IC50 [µM]
PLSPDTCLLA | 11.2
PLTGNNTITT | 7.67
PMIIGEPIIV | ≥ 70
PTDMLKLFT | 29.1
PTEMVDVSM | 10.6
PTEMVDVSMM | 11.5
PTIEDDKIVT | 13.8
PTLFGRGVI | 30.3
PTNDIPSLFI | 11
PTPKKMNIVT | 65.8
PTRTWKVLSI | 41.9
PVDLVKSSFV | 6.61
PVETLFGSYI | 13.7
PVIVPDIKL | 41.2
QTGINNVQSL | 20.2
RINLLVQYGA | 10.3
RISSSLDQT | 6.79
RLEVIGLTT | 20
RTWKVLSIMA | 24
RVTKRDESSI | 12.3

Sequence | IC50 [µM]
SADNHPKMI | 8.18
SAEDNYLAKL | ≥ 70
SIENKHQRRL | 17
SITPNNLNKI | 14.9
STQQNKLVI | 53
SVDEEGCGPL | 14.8
TIDNIVTSLA | ≥ 70
TIEDDKIVTM | 17
TIESAKTKI | 16.3
TQFNFNGHT | 43.4
TQLFKYVPSA | ≥ 70
TTELNIVDEI | 38.7
TTENAAYQVL | 29.7
TVDVRNIVT | 13.4
VAKCCSKTNT | 14.7
VASDVCKKNL | 50.9
VIPFDDIVRT | 62.8
VIRHVDGKIL | ≥ 70
VIVENDNVI | 15.5
VLKAMHDKKI | 48.9

target: HLA-A*68:02; assay: as above; settings: source organism: Influenza A virus

Sequence | IC50 [µM]
QARQMVQAMRA | 20
QTRSKAGLLV | 50.9
RAEIIRMMEGA | 54.7
RAVKLYRKL | ≥ 70
SAAFEDLRL | 27.1
SAAFEDLRLL | ≥ 70
TATKRIRMA | ≥ 70
TVDHMAII | 39.7
TVIKNNMI | ≥ 70
TVLGVSIL | 15.8
TVPSERGL | 65
VATTHSWI | 56.2

same assay, conditions: source organism: Mammarenavirus choriomeningitidis

Sequence | IC50 [µM]
SNSEDLLKAV | 43

same assay, conditions: source organism: Vaccinia virus WR

Sequence | IC50 [µM]
PLSPDTCLLA | 15.2
PLTGNNTITT | 49.3
PMIIGEPIIV | ≥ 70
PTDMLKLFT | ≥ 70
PTEMVDVSM | 52.2
PTEMVDVSMM | ≥ 70
PTIEDDKIVT | ≥ 70
PTLFGRGVI | ≥ 70
PTNDIPSLFI | 24.8
PTPKKMNIVT | ≥ 70
PTRTWKVLSI | 42
PVDLVKSSFV | 10.8
PVETLFGSYI | 7.16
PVIVPDIKL | 29.9
QTGINNVQSL | 11.6
RINLLVQYGA | 21
RISSSLDQT | 67.5
RLEVIGLTT | 13.1
RTWKVLSIMA | 8.2
RVTKRDESSI | 8.81

Sequence | IC50 [µM]
SADNHPKMI | ≥ 70
SAEDNYLAKL | ≥ 70
SIENKHQRRL | ≥ 70
SITPNNLNKI | ≥ 70
STQQNKLVI | 25.7
SVDEEGCGPL | 35.3
TIDNIVTSLA | ≥ 70
TIEDDKIVTM | 38.8
TIESAKTKI | 52.6
TQFNFNGHT | 52.2
TQLFKYVPSA | ≥ 70
TTELNIVDEI | 10.7
TTENAAYQVL | 18.2
TVDVRNIVT | 5.98
VAKCCSKTNT | ≥ 70
VASDVCKKNL | 39.5
VIPFDDIVRT | 42.2
VIRHVDGKIL | ≥ 70
VIVENDNVI | 8.02
VLKAMHDKKI | ≥ 70

target: HLA-A*02:01; assay: as above; settings: source organism: Influenza A virus

Sequence | IC50 [µM]
QARQMVQAMRA | ≥ 70
QTRSKAGLLV | ≥ 70
RAEIIRMMEGA | ≥ 70
RAVKLYRKL | 53.5
SAAFEDLRL | ≥ 70
SAAFEDLRLL | 42.7
TATKRIRMA | 34
TVDHMAII | ≥ 70
TVIKNNMI | ≥ 70
TVLGVSIL | 6.79
TVPSERGL | 52.9
VATTHSWI | ≥ 70

same assay, conditions: source organism: Mammarenavirus choriomeningitidis

Sequence | IC50 [µM]
SNSEDLLKAV | 7.84

same assay, conditions: source organism: Vaccinia virus WR

Sequence | IC50 [µM]
PLSPDTCLLA | 6.97
PLTGNNTITT | ≥ 70
PMIIGEPIIV | 26.3
PTDMLKLFT | ≥ 70
PTEMVDVSM | 47.4
PTEMVDVSMM | 41.9
PTIEDDKIVT | ≥ 70
PTLFGRGVI | ≥ 70
PTNDIPSLFI | 18.4
PTPKKMNIVT | ≥ 70
PTRTWKVLSI | ≥ 70
PVDLVKSSFV | 39.3
PVETLFGSYI | ≥ 70
PVIVPDIKL | 52.8
QTGINNVQSL | 48.1
RINLLVQYGA | 9.16
RISSSLDQT | 63.6
RLEVIGLTT | 28.8
RTWKVLSIMA | 8.48
RVTKRDESSI | 55.9

Sequence | IC50 [µM]
SADNHPKMI | 14.5
SAEDNYLAKL | ≥ 70
SIENKHQRRL | ≥ 70
SITPNNLNKI | ≥ 70
STQQNKLVI | 41.1
SVDEEGCGPL | 32.1
TIDNIVTSLA | ≥ 70
TIEDDKIVTM | 13.3
TIESAKTKI | 15.2
TQFNFNGHT | ≥ 70
TQLFKYVPSA | ≥ 70
TTELNIVDEI | 35.9
TTENAAYQVL | 8.11
TVDVRNIVT | 10.5
VAKCCSKTNT | 20.9
VASDVCKKNL | ≥ 70
VIPFDDIVRT | 24.4
VIRHVDGKIL | ≥ 70
VIVENDNVI | 25.6
VLKAMHDKKI | ≥ 70

target: HLA-A*02:06; assay: as above; settings: source organism: Influenza A virus

Sequence | IC50 [µM]
QARQMVQAMRA | 55.2
QTRSKAGLLV | ≥ 70
RAEIIRMMEGA | ≥ 70
RAVKLYRKL | ≥ 70
SAAFEDLRL | 30.6
SAAFEDLRLL | 23.5
TATKRIRMA | 35.4
TVDHMAII | 41.8
TVIKNNMI | 67
TVLGVSIL | 5.69
TVPSERGL | ≥ 70
VATTHSWI | ≥ 70

same assay, conditions: source organism: Mammarenavirus choriomeningitidis

Sequence | IC50 [µM]
SNSEDLLKAV | 10

same assay, conditions: source organism: Vaccinia virus WR

Sequence | IC50 [µM]
PLSPDTCLLA | 19.9
PLTGNNTITT | ≥ 70
PMIIGEPIIV | ≥ 70
PTDMLKLFT | 69.8
PTEMVDVSM | 40.2
PTEMVDVSMM | 12.1
PTIEDDKIVT | ≥ 70
PTLFGRGVI | 64.9
PTNDIPSLFI | 14.8
PTPKKMNIVT | ≥ 70
PTRTWKVLSI | ≥ 70
PVDLVKSSFV | 26.6
PVETLFGSYI | ≥ 70
PVIVPDIKL | 51.4
QTGINNVQSL | 53.6
RINLLVQYGA | 7.65
RISSSLDQT | 27.8
RLEVIGLTT | ≥ 50
RTWKVLSIMA | 5.75
RVTKRDESSI | 22.2

Sequence | IC50 [µM]
SADNHPKMI | ≥ 70
SAEDNYLAKL | ≥ 70
SIENKHQRRL | 53.6
SITPNNLNKI | ≥ 70
STQQNKLVI | ≥ 70
SVDEEGCGPL | 12.7
TIDNIVTSLA | ≥ 70
TIEDDKIVTM | 26.1
TIESAKTKI | 51.4
TQFNFNGHT | 10
TQLFKYVPSA | ≥ 70
TTELNIVDEI | 21.4
TTENAAYQVL | ≥ 70
TVDVRNIVT | 53.6
VAKCCSKTNT | 40.7
VASDVCKKNL | ≥ 70
VIPFDDIVRT | 18.2
VIRHVDGKIL | ≥ 70
VIVENDNVI | 7.24
VLKAMHDKKI | ≥ 70
